Measured values as given in patent US20030207263A1, “Method of screening therapeutic agents” (priority 1998, published 2003).

How the values were obtained:
[1] = tested on: renilla luciferase driven by the RSV LTR, clone F89; assay: Renilla luciferase specificity/toxicity control (pRc/Renilla), clone F89; conditions: for relative renilla luciferase activities (fold induction): value 1 = absence of TGFβ
From the text: (§1) The expression of this transgene should not be regulated by TGFβ or activin, i.e. it should not contain CAGA sequences in its regulatory regions. For instance, the renilla-luciferase gene can be transcribed from the RSV (Rous Sarcoma Virus) promoter or SV (Simian Virus 40) promoter. […] This means that an agent acting specifically through CAGA boxes-mediated transcription will have an effect on the firefly luciferase activity but not on the renilla luciferase activity.

[2] = tested on: renilla luciferase driven by the RSV LTR, clone 1613; assay: Renilla luciferase specificity/toxicity control (pRc/Renilla), clone 1613; conditions: for relative renilla luciferase activities (fold induction): value 1 = absence of TGFβ
From the text: as §1

[3] = tested on: human PAI-1 promoter (PAI-1-Luc, clone 1613); assay: Human PAI-1-Luc firefly luciferase reporter, stable clone 1613; conditions: for relative firefly luciferase activities (fold induction): value 1 = absence of TGFβ
Description: (§2) Thus, the renilla luciferase activity can be used as an internal toxicity control.
(§3) At day 1, 40 (96 well-) microplates are seeded, using a multidrop apparatus, with CAGA-reporter cells (i.e F89 or 1613) at a concentration of 35000 cells per well in 200 μl of serum-containing medium.
(§4) 8 to 24 hours later (Day 2), microplates containing the chemical compounds to be tested, diluted in 100% DMSO, are placed in a carousel and the cell-incubation procedure is launched. The computer system coordinates then the actions of different peripheric equipments in order to incubate the cells in the presence of TGFβ with the coumpounds to be tested.
(§5) Cells and compounds microplates are moved through the robotic line to the adequate peripheries by the axial rotatable arm. Cells are washed and incubated in a serum-free medium. The pippetage station realizes different operations including preliminary dilutions in order to incubate the cells with TGFβ and the chemical compounds to be tested. The final concentration of TGFβ (rhTGFβ-1 from R & D) used in the test is 1 ng/mL and the compounds are tested at a final concentration of 10 μl in a final concentration of DMSO of 1%. Cells are incubated with the compounds to be tested 15-30 mn prior the addition of TGFβ. The final volume of the test reaction is 150 μl. Wells A1 through H10 are the test wells and contain cells incubated with the chemical agents to be tested in the presence of TGFβ. Each well contains only one singular chemical compound and allows to test its effect on CAGA-mediated transcription. Columns 11 and 12 are kept for controls. Column 11 contains 8 wells where cells are incubated in the presence of TGFβ without chemical compounds. Column 11 determines of the reference TGFβ-induced firefly luciferase value to which will be compared the values measured in the test wells to identify potential inhibitor or activator coumpounds. In wells A12 to D12, cells are grown in medium without TGFβ. The firefly luciferase value obtained with these points represents the ‘basal firefly luciferase activity’ and allows to control that the TGFβ induction is correct. In wells E12 to H12, cells are incubated in the presence of TGFβ with 500 μM CPO (Cyclopentenone, Sigma) which is a cell toxic compound. […] These points allows to control that the test is sensitive to toxic compounds.
(§6) 12 to 18 hours later (day 3), the luciferase quantification procedure is launched. The following reactions are realized using reagents of the Dual Luciferase Assay Kit from Promega. Cells are washed and lysed with the addition of 10 μl of passive lysis buffer (Promega). After 15 to 30 mn of agitation, luciferase activities of the plates are read in a dual-injector luminometer (BMG lumistar).

[4] = tested on: CAGA box-mediated transcription ((CAGA)9MLP-Luc, clone F89); assay: TGFβ-responsive (CAGA)9MLP-Luc firefly luciferase reporter, stable clone F89; conditions: for relative firefly luciferase activities (fold induction): value 1 = absence of TGFβ
Description: as §2, §3, §4, §5, §6

[5] = tested on: CAGA-reporter cells (i.e F89 or 1613); assay: Toxic-compound control wells of the automated high throughput transcriptional screen; format: cell-based, human; conditions: 500 μM CPO in the presence of TGFβ
[6] = tested on: CAGA box reporter vector in HepG2 cells
Description: (§7) FIG. 1C: HepG2 and Mv1Lu cells were transfected with p3TP-Lux or a vector containing nine or twelve copies of the CAGA box upstream of the minimal Adenovirus Major Late Promoter (MLP). Fold inductions by TGFβ are given for HepG2 cells.
(§8) FIG. 3B: HepG2 cells were transfected with a (CAGA)12-MLP-Luc reporter construct and induced by BMP-7, activin or TGFβ (respectively 100 ng/mL, 20 ng/mL and 10 ng/mL).
(§9) HepG2 and MDA-MB468 cells were transiently transfected, with the indicated constructs and the internal control pRL-TK vector, using the calcium phosphate co-precipitation method. When increasing amounts of expression vectors were transfected, total DNA was kept constant by addition of pCMV5. Cells were serum starved for 8 h before stimulation with 7 ng/mL of human recombinant TGFβ1 (R&D) and luciferases activities were quantified 14 h later using the Dual Luciferase Assay (Promega). For activin and BMP-7 (Creative Biomolecules) induction, respectively 20 ng/mL and 100 ng/mL were used. Values were normalized with the renilla luciferase activity expressed from pRL-TK. […] Luciferase values shown in figures are representative of transfection experiments done at least three times.

[7] = tested on: CAGA box reporter vector in HepG2 cells; assay: Transient CAGA boxes-MLP-Luc reporter in HepG2 cells; conditions: (CAGA)12-MLP-Luc, TGFβ 10 ng/mL
Description: as §7, §8, §9

## CCOc1cc(/C=C(\C#N)C(N)=O)cc(CSc2ccccc2)c1O [Compound A, α-cyano4-hydroxy-3-ethoxy-5-phenylthiomethyl cinnamamide]
[1]; specificity/toxicity control
  inhibitory effect on the renilla luciferase activities: not on the renilla luciferase activities
[2]; specificity/toxicity control
  inhibitory effect on the renilla luciferase activities: not on the renilla luciferase activities
[3]; compound A 0.1 μM
  firefly luciferase activity (value 100 = absence of compound A, 1 ng/mL TGFβ): 105
[3]; compound A 1 μM
  firefly luciferase activity (value 100 = absence of compound A, 1 ng/mL TGFβ): 102
[3]; compound A 5 μM
  firefly luciferase activity (value 100 = absence of compound A, 1 ng/mL TGFβ): 65
[3]; compound A 10 μM
  firefly luciferase activity (value 100 = absence of compound A, 1 ng/mL TGFβ): 36
[4]; compound A 0.1 μM
  firefly luciferase activity (value 100 = absence of compound A, 1 ng/mL TGFβ): 98
[4]; compound A 1 μM
  firefly luciferase activity (value 100 = absence of compound A, 1 ng/mL TGFβ): 95
[4]; compound A 5 μM
  firefly luciferase activity (value 100 = absence of compound A, 1 ng/mL TGFβ): 86
[4]; compound A 10 μM
  firefly luciferase activity (value 100 = absence of compound A, 1 ng/mL TGFβ): 23

## O=C1C=CCC1 [CPO, Cyclopentenone]
[5]
  firefly luciferase activity relative to TGFβ-only wells: around 50%
  renilla luciferase activity relative to TGFβ-only wells: around 50%

## TGFβ: human recombinant TGFβ1 (R&D), cytokine used to induce CAGA box-mediated transcription
[1]; TGFβ 0.2 ng/mL
  relative renilla luciferase activities (fold induction): 1.1 fold induction
[1]; TGFβ 0.5 ng/mL
  relative renilla luciferase activities (fold induction): 1.1 fold induction
[1]; TGFβ 1 ng/mL
  relative renilla luciferase activities (fold induction): 1.2 fold induction
[1]; TGFβ 5 ng/mL
  relative renilla luciferase activities (fold induction): 1.5 fold induction
[1]; TGFβ 10 ng/mL
  relative renilla luciferase activities (fold induction): 1.8 fold induction
[2]; TGFβ 0.2 ng/mL
  relative renilla luciferase activities (fold induction): 0.8 fold induction
[2]; TGFβ 1 ng/mL
  relative renilla luciferase activities (fold induction): 1 fold induction
[2]; TGFβ 5 ng/mL
  relative renilla luciferase activities (fold induction): 1 fold induction
[2]; TGFβ 10 ng/mL
  relative renilla luciferase activities (fold induction): 1.3 fold induction
[6]
  TGFβ-mediated fold induction: Several hundred
[7]
  fold induction of CAGA boxes containing reporter: 200 fold
[3]; TGFβ 0.2 ng/mL
  relative firefly luciferase activities (fold induction): 8 fold induction
[3]; TGFβ 1 ng/mL
  relative firefly luciferase activities (fold induction): 26.2 fold induction
[3]; TGFβ 5 ng/mL
  relative firefly luciferase activities (fold induction): 43.5 fold induction
[3]; TGFβ 10 ng/mL
  relative firefly luciferase activities (fold induction): 50.1 fold induction
[4]; TGFβ 0.2 ng/mL
  relative firefly luciferase activities (fold induction): 6 fold induction
[4]; TGFβ 0.5 ng/mL
  relative firefly luciferase activities (fold induction): 31 fold induction
[4]; TGFβ 1 ng/mL
  relative firefly luciferase activities (fold induction): 109 fold induction
[4]; TGFβ 5 ng/mL
  relative firefly luciferase activities (fold induction): 461 fold induction
[4]; TGFβ 10 ng/mL
  relative firefly luciferase activities (fold induction): 737 fold induction
